The values below are quoted from earlier work in paper PMC4332414.

For this series, the target named is Collagen type II (UniProt P02458). Nature of the series: surface plasmon resonance. (In SPR one partner is held on a chip, and binding of the other changes the refractive index at the surface.)
Chain of Collagen type II (P02458 182-1241): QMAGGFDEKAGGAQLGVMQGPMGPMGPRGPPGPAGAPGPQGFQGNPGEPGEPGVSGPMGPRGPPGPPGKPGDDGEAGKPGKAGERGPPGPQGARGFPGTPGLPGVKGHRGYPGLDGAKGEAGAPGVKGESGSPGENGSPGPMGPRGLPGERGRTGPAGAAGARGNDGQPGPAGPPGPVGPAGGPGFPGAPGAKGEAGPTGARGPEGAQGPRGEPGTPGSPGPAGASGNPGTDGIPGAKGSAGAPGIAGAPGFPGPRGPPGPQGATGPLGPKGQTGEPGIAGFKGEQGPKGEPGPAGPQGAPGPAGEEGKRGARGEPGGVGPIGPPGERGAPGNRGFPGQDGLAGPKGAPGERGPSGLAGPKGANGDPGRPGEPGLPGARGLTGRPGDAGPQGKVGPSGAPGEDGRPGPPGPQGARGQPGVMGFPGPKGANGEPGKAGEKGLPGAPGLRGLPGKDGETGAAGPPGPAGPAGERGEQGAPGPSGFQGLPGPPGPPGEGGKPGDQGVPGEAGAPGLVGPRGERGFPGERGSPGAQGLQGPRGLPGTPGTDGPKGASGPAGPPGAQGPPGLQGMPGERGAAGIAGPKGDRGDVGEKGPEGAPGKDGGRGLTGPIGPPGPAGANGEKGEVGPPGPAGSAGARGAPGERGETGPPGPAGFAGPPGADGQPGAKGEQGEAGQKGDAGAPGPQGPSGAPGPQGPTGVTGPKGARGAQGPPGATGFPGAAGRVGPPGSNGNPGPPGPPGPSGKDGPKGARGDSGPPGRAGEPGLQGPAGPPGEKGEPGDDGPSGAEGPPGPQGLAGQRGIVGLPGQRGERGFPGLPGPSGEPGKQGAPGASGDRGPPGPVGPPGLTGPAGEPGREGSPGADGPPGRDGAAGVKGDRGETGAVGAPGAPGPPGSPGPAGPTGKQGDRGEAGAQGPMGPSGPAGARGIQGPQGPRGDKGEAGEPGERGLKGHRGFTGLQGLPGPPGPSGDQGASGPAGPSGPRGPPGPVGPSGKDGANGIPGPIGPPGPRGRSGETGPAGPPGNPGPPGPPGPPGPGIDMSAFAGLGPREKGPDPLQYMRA

Chain of DDR2 DS domain (Q16832 30-185): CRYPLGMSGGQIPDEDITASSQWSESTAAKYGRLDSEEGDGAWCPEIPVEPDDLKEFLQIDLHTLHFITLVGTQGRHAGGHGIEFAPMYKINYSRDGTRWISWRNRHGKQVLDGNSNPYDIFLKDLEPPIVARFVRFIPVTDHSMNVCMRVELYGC

With DDR2 DS domain (from UniProt Q16832), the Kd (as a rule, the equilibrium constant for the complex coming apart) is 25 µM.
